Biological target: the molecule itself
Assay: cryo-EM structure

B1: STRN3 (striatin 3), recombinant (natural protein, human, UniProt Q13033-2 1-713, looked up)
chain: MDELAGGGGGGPGMAAPPRQQQGPGGNLGLSPGGNGAAGGGGPPASEGAGPAAGPELSRPQQYTIPGILHYIQHEWARFEMERAHWEVERAELQARIAFLQGERKGQENLKKDLVRRIKMLEYALKQERAKYHKLKYGTELNQGDLKMPTFESEETKDTEAPTAPQNSQLTWKQGRQLLRQYLQEVGYTDTILDVRSQRVRSLLGLSNSEPNGSVETKNLEQILNGGESPKQKGQEIKRSSGDVLETFNFLENADDSDEDEENDMIEGIPEGKDKHRMNKHKIGNEGLAADLTDDPDTEEALKEFDFLVTAEDGEGAGEARSSGDGTEWAEPITFPSGGGKSFIMGSDDVLLSVLGLGDLADLTVTNDADYSYDLPANKDAFRKTWNPKYTLRSHFDGVRALAFHPVEPVLVTASEDHTLKLWNLQKTVPAKKSASLDVEPIYTFRAHIGPVLSLAISSNGEQCFSGGIDATIQWWNMPSPSVDPYDTYEPNVLAGTLVGHTDAVWGLAYSGIKNQLLSCSADGTVRLWNPQEKLPCICTYNGDKKHGIPTSVDFIGCDPAHMVTSFNTGSAVIYDLETSQSLVILSSQVDSGLQSNNHINRVVSHPTLPVTITAHEDRHIKFFDNKTGKMIHSMVAHLDAVTSLAVDPNGIYLMSGSHDCSIRLWNLDSKTCVQEITAHRKKLDESIYDVAFHSSKAYIASAGADALAKVFV
- stoichiometry N: 4

From publication PMC8315899 (Nature structural & molecular biology, 2021)
